Measurements from patent US20170362301A1 (Janssen / Centocor, published 2017).
Changes are numbered by the printed parent chain.

B1: P54AR4-17 (designed binder)
chain: LPAPKNLVVSEVTEDSLRLSWTYDRDGYDSFLIQYQESEKVGEAINLTVPGSERSYDLTGLKPGTEYTVSIYGVHNVYKDTNMRGLPLSAEFTT
B2: P54AR4-73 (designed binder)
chain: B1 chain with Y23W, D24P, R25Y, D26A, G27D, Y28L
B3: P54AR4-83 (designed binder)
chain: B1 chain with T22D, Y23D, D24P, R25W, D26A, G27F, D29E
B4: P54AR4-48 (designed binder)
chain: B1 chain with T22D, Y23D, D24P, D26G, G27F, D29E
B5: P114AR5P74-A5 (designed binder)
chain: LPAPKNLVVSRVTEDSARLSWTAPDAAFDSFWIRYDEVVVGGEAIVLTVPGSERSYDLTGLKPGTEYYVNILGVKGGSISVPLSAIFTT
B6: ECB5 (designed binder)
chain: MLPAPKNLVVSEVTEDSARLSWADPHGFYDSFLIQYQESEKVGEAIVLTVPGSERSYDLTGLKPGTEYTVSIYGVHNVYKDTNMRGLPLSAIFTTGGGGSGGGGSGGGGSGGGGSMLPAPKNLVVSRVTEDSARLSWTAPDAAFDSFWIRYFEFLGSGEAIVLTVPGSERSYDLTGLKPGTEYVVNIMGVKGGKISPPLSAIFTT
B7: ECB38 (designed binder)
chain: MLPAPKNLVVSEVTEDSARLSWDDPWAFYESFLIQYQESEKVGEAIVLTVPGSERSYDLTGLKPGTEYTVSIYGVHNVYKDTNMRGLPLSAIFTTAPAPAPAPAPLPAPKNLVVSRVTEDSARLSWTAPDAAFDSFWIRYFEFLGSGEAIVLTVPGSERSYDLTGLKPGTEYVVNIMGVKGGKISPPLSAIFTTAPAPAPAPAPLAEAKVLANRELDKYGVSDYYKNLINNAKTVEGVKALLDEILAALP
B8: ECB147v3-PEG24 (designed binder)
chain: B7 chain with K63C, A98C, K167C, G178S, K183S, A197C
modifications: PEG24-maleimide on the engineered cysteines
B9: ECB147v5-PEG24 (designed binder)
chain: B7 chain with K63C, K167C, G178S, K183S
modifications: PEG24-maleimide on the engineered cysteines
B10: ECB147v6-PEG24 (designed binder)
chain: B7 chain with K63C, G178S, K183S
modifications: PEG24-maleimide on the engineered cysteine
B11: P54CR4-31 (designed binder)
chain: LPAPKNLVVSEVTEDSLRLSWTAPDAAFDSFLIQYQESEKVGEAINLTVPGSERSYDLTGLKPGTEYTVSIYGVLGSYVFEHDVMLPLSAEFTT
B12: ECB147v7-PEG24 (designed binder)
chain: B7 chain with A98C, G178S, K183S, A197C
modifications: PEG24-maleimide on the engineered cysteines
B13: 83v2His6-cys, NEM conjugate (designed binder)
chain: MLPAPKNLVVSEVTEDSARLSWDDPWAFYESFLIQYQESEKVGEAIVLTVPGSERSYDLTGLKPGTEYTVSIYGVHNVYKDTNMRGLPLSAIFTTGGHHHHHHC
modifications: NEM on the C-terminal Cys
notes: also called P54AR4-83v2-cys; P54AR4-83v2 parent

How the values were obtained:
[1] = target: T1, EGFR on cells (A431, NCI-H292, NCI-H322, NCI-H441) (human, UniProt P00533 25-1210); test: cell-based or functional assay
[2] = target: T2, c-Met on cells (NCI-H441, NCI-H292, U87-MG) (human, UniProt P08581 25-1390); test: cell-based or functional assay
[3] = target: T1, EGFR on cells (A431, NCI-H292, …); test: cell-based or functional assay; remark: listed apart in the source
[4] = target: T2, c-Met on cells (NCI-H441, NCI-H292, …); test: cell-based or functional assay; remark: listed apart in the source
[5] = target: T1, EGFR on cells (A431, NCI-H292, …); test: cell-based or functional assay; remark: listed apart in the source
[6] = target: T3, EGFR (form in the assay not stated) (human, UniProt P00533 25-645, limits assumed); test: ELISA, NEM conjugate 10 nM (the reference itself)
[7] = target: T3, EGFR (form in the assay not stated); test: ELISA, NEM conjugate 100 nM (the reference itself)
[8] = target: T3, EGFR (form in the assay not stated); test: ELISA, NEM conjugate 500 nM (the reference itself)

T2 sequence (P08581 other isoform, or with tags, fused parts or gaps limits assumed): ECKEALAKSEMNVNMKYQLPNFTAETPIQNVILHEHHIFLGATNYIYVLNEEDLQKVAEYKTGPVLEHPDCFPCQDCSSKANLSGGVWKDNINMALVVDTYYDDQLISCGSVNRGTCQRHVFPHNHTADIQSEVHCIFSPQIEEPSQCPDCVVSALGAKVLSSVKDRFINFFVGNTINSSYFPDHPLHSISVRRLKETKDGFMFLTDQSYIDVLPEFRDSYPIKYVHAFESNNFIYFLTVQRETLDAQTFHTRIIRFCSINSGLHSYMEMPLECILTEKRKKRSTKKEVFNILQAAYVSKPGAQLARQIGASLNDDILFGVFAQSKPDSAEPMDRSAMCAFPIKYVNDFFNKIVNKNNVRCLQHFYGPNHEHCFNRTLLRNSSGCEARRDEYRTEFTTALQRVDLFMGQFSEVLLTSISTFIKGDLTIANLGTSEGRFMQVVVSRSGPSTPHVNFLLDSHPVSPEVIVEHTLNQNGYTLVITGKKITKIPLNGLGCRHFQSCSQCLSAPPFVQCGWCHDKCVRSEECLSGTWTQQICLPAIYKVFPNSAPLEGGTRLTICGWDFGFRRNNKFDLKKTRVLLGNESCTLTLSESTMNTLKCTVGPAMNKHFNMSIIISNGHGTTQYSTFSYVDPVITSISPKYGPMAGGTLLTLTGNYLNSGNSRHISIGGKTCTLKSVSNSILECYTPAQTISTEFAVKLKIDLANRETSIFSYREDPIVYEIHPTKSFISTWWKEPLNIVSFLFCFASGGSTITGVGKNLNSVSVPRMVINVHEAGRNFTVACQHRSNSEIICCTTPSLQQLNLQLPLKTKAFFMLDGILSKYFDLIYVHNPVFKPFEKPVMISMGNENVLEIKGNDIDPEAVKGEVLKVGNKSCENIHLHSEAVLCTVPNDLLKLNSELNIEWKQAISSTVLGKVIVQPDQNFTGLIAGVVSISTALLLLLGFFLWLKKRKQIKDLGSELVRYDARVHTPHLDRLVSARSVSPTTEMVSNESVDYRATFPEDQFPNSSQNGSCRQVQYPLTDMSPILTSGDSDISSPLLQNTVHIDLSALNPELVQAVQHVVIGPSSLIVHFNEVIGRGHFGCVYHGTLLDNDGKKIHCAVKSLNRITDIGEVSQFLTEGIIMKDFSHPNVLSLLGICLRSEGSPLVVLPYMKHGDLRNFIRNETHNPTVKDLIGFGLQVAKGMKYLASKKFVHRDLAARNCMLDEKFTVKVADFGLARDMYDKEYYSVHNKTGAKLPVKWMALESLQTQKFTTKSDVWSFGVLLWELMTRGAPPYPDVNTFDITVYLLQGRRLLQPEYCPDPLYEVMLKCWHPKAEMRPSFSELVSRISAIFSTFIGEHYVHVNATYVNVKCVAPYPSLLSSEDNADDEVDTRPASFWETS

Phospho-EGFR IC50, A431 cells [1] | HGF-stimulated c-Met phosphorylation in NCI-H292 cells IC50 [4] | EGF-stimulated EGFR phosphorylation in NCI-H292 cells IC50 [5] | also measured | Binder
184 nM | – | – | – | B1
141 nM | – | – | – | B2
18 nM | – | – | – | B3
170 nM | – | – | – | B4
– | – | – | c-Met phosphorylation in NCI-H292 cells IC50 [2]: 610 nM | B5
– | – | – | fold decrease of IC50 for inhibition of EGFR phosphorylation in NCI-H441 cells against monospecific P53A1R5-17v2 [3]: 30 fold | B6
– | 1.3 nM | 2.3 nM | – | B7
– | 0.5 nM | 1.6 nM | – | B8
– | 0.4 nM | 0.9 nM | – | B9
– | 0.4 nM | 1.4 nM | – | B10
179 nM | – | – | – | B11
– | 0.5 nM | 1.4 nM | – | B12
– | – | – | binding ratio vs parent P54AR4-83v2 [6]: 1 ratio; binding ratio vs parent P54AR4-83v2 [7]: 1 ratio; binding ratio vs parent P54AR4-83v2 [8]: 1 ratio | B13
